Several values for one entry are separate records, joined by “and”; a condition that tells them apart may be missing. Identical values can stand only once.
B1: Trastuzumab HCDR3 variant ARYGYYGYYMDY (Fab, V domains shown)
VH: EVQLVESGGGLVQPGGSLRLSCAASGFNIKDTYIHWVRQAPGKGLEWVARIYPTNGYTRYADSVKGRFTISADTSKNTAYLQMNSLRAEDTAVYYCARYGYYGYYMDYWGQGTLVTVSS
VL: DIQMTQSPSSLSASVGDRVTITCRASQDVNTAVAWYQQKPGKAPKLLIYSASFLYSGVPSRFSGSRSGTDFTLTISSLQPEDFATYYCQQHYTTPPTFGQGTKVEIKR
B2: Trastuzumab HCDR3 variant ATWYGGNYHMYP (Fab, V domains shown)
VH: EVQLVESGGGLVQPGGSLRLSCAASGFNIKDTYIHWVRQAPGKGLEWVARIYPTNGYTRYADSVKGRFTISADTSKNTAYLQMNSLRAEDTAVYYCATWYGGNYHMYPWGQGTLVTVSS
VL: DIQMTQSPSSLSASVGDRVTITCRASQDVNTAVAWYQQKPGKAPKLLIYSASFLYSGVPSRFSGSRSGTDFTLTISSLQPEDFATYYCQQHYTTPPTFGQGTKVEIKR
B3: Trastuzumab HCDR3 variant TRYGYGYYYMDY (Fab, V domains shown)
VH: EVQLVESGGGLVQPGGSLRLSCAASGFNIKDTYIHWVRQAPGKGLEWVARIYPTNGYTRYADSVKGRFTISADTSKNTAYLQMNSLRAEDTAVYYCTRYGYGYYYMDYWGQGTLVTVSS
VL: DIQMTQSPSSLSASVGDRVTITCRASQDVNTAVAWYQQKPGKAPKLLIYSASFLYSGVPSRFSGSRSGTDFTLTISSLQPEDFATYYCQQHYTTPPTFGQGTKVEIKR
B4: Trastuzumab HCDR3 variant VRWGGYYYYFDY (Fab, V domains shown)
VH: EVQLVESGGGLVQPGGSLRLSCAASGFNIKDTYIHWVRQAPGKGLEWVARIYPTNGYTRYADSVKGRFTISADTSKNTAYLQMNSLRAEDTAVYYCVRWGGYYYYFDYWGQGTLVTVSS
VL: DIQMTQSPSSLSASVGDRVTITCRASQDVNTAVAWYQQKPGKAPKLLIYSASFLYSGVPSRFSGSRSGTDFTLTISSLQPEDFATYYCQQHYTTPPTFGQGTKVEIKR
B5: Trastuzumab HCDR3 variant TRYGYGYYYFDY (Fab, V domains shown)
VH: EVQLVESGGGLVQPGGSLRLSCAASGFNIKDTYIHWVRQAPGKGLEWVARIYPTNGYTRYADSVKGRFTISADTSKNTAYLQMNSLRAEDTAVYYCTRYGYGYYYFDYWGQGTLVTVSS
VL: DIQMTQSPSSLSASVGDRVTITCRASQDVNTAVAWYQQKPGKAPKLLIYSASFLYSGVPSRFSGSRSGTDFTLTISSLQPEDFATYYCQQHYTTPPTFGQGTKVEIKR
B6: Trastuzumab HCDR3 variant ATYSFGAYYYVF (Fab, V domains shown)
VH: EVQLVESGGGLVQPGGSLRLSCAASGFNIKDTYIHWVRQAPGKGLEWVARIYPTNGYTRYADSVKGRFTISADTSKNTAYLQMNSLRAEDTAVYYCATYSFGAYYYVFWGQGTLVTVSS
VL: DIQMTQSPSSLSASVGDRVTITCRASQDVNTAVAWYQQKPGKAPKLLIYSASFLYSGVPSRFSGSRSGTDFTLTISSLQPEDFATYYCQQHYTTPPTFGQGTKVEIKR
B7: Trastuzumab HCDR3 variant ARYPPGYYIMDF (Fab, V domains shown)
VH: EVQLVESGGGLVQPGGSLRLSCAASGFNIKDTYIHWVRQAPGKGLEWVARIYPTNGYTRYADSVKGRFTISADTSKNTAYLQMNSLRAEDTAVYYCARYPPGYYIMDFWGQGTLVTVSS
VL: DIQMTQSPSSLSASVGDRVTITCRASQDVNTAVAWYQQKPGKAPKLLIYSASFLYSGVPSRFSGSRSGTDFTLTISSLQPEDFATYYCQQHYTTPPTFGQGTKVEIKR
B8: Trastuzumab HCDR3 variant ARYTFGAYYYSD (Fab, V domains shown)
VH: EVQLVESGGGLVQPGGSLRLSCAASGFNIKDTYIHWVRQAPGKGLEWVARIYPTNGYTRYADSVKGRFTISADTSKNTAYLQMNSLRAEDTAVYYCARYTFGAYYYSDWGQGTLVTVSS
VL: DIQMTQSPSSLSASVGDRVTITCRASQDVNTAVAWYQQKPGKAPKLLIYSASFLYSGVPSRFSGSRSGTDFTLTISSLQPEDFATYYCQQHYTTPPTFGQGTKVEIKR
B9: Trastuzumab HCDR3 variant AVYSPDFYYLGY (Fab, V domains shown)
VH: EVQLVESGGGLVQPGGSLRLSCAASGFNIKDTYIHWVRQAPGKGLEWVARIYPTNGYTRYADSVKGRFTISADTSKNTAYLQMNSLRAEDTAVYYCAVYSPDFYYLGYWGQGTLVTVSS
VL: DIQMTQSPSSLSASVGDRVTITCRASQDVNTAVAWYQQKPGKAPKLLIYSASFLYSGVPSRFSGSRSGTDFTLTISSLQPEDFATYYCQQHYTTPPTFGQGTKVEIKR
B10: Trastuzumab HCDR3 variant ARYPGYYYYFDY (Fab, V domains shown)
VH: EVQLVESGGGLVQPGGSLRLSCAASGFNIKDTYIHWVRQAPGKGLEWVARIYPTNGYTRYADSVKGRFTISADTSKNTAYLQMNSLRAEDTAVYYCARYPGYYYYFDYWGQGTLVTVSS
VL: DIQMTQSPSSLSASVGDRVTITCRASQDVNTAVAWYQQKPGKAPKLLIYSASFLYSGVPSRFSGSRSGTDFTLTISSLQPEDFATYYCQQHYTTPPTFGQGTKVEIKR
B11: Trastuzumab HCDR3 variant TRYGGGYYYFDY (Fab, V domains shown)
VH: EVQLVESGGGLVQPGGSLRLSCAASGFNIKDTYIHWVRQAPGKGLEWVARIYPTNGYTRYADSVKGRFTISADTSKNTAYLQMNSLRAEDTAVYYCTRYGGGYYYFDYWGQGTLVTVSS
VL: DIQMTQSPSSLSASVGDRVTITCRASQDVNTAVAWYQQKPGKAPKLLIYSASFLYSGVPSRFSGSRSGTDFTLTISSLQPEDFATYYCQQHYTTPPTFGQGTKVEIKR
B12: Trastuzumab HCDR3 variant ARYYYYSYAMDY (Fab, V domains shown)
VH: EVQLVESGGGLVQPGGSLRLSCAASGFNIKDTYIHWVRQAPGKGLEWVARIYPTNGYTRYADSVKGRFTISADTSKNTAYLQMNSLRAEDTAVYYCARYYYYSYAMDYWGQGTLVTVSS
VL: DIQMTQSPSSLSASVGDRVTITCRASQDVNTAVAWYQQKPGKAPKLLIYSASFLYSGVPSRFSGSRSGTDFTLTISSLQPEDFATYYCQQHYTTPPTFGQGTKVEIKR
B13: Trastuzumab HCDR3 variant ATYGYGYYYFDY (Fab, V domains shown)
VH: EVQLVESGGGLVQPGGSLRLSCAASGFNIKDTYIHWVRQAPGKGLEWVARIYPTNGYTRYADSVKGRFTISADTSKNTAYLQMNSLRAEDTAVYYCATYGYGYYYFDYWGQGTLVTVSS
VL: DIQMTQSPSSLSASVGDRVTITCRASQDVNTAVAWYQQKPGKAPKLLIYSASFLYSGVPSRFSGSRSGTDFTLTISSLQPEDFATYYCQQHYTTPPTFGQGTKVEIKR
B14: Trastuzumab HCDR3 variant TRYYYGLYYFDY (Fab, V domains shown)
VH: EVQLVESGGGLVQPGGSLRLSCAASGFNIKDTYIHWVRQAPGKGLEWVARIYPTNGYTRYADSVKGRFTISADTSKNTAYLQMNSLRAEDTAVYYCTRYYYGLYYFDYWGQGTLVTVSS
VL: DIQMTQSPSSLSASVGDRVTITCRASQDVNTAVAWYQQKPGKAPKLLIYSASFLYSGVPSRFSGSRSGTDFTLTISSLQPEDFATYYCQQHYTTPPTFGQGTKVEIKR
B15: Trastuzumab HCDR3 variant ATWHYGGYFMSG (Fab, V domains shown)
VH: EVQLVESGGGLVQPGGSLRLSCAASGFNIKDTYIHWVRQAPGKGLEWVARIYPTNGYTRYADSVKGRFTISADTSKNTAYLQMNSLRAEDTAVYYCATWHYGGYFMSGWGQGTLVTVSS
VL: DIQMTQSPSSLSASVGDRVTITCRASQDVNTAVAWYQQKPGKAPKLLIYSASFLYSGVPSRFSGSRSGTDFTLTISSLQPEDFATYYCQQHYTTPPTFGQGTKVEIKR
B16: Trastuzumab HCDR3 variant STYARDYYHFGS (Fab, V domains shown)
VH: EVQLVESGGGLVQPGGSLRLSCAASGFNIKDTYIHWVRQAPGKGLEWVARIYPTNGYTRYADSVKGRFTISADTSKNTAYLQMNSLRAEDTAVYYCSTYARDYYHFGSWGQGTLVTVSS
VL: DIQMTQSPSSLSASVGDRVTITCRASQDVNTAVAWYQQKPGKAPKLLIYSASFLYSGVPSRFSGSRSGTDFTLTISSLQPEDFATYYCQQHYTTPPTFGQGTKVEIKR
B17: Trastuzumab HCDR3 variant ARYGYYSYAMDY (Fab, V domains shown)
VH: EVQLVESGGGLVQPGGSLRLSCAASGFNIKDTYIHWVRQAPGKGLEWVARIYPTNGYTRYADSVKGRFTISADTSKNTAYLQMNSLRAEDTAVYYCARYGYYSYAMDYWGQGTLVTVSS
VL: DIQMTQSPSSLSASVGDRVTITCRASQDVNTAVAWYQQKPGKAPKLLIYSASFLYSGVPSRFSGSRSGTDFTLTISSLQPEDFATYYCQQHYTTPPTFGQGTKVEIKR
B18: Trastuzumab HCDR3 variant ARYRHWYYDYDY (Fab, V domains shown)
VH: EVQLVESGGGLVQPGGSLRLSCAASGFNIKDTYIHWVRQAPGKGLEWVARIYPTNGYTRYADSVKGRFTISADTSKNTAYLQMNSLRAEDTAVYYCARYRHWYYDYDYWGQGTLVTVSS
VL: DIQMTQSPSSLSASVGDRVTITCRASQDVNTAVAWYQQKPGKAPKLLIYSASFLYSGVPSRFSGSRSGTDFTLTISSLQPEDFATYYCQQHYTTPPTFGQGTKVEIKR
B19: Trastuzumab HCDR3 variant TRFRSFFYNFDY (Fab, V domains shown)
VH: EVQLVESGGGLVQPGGSLRLSCAASGFNIKDTYIHWVRQAPGKGLEWVARIYPTNGYTRYADSVKGRFTISADTSKNTAYLQMNSLRAEDTAVYYCTRFRSFFYNFDYWGQGTLVTVSS
VL: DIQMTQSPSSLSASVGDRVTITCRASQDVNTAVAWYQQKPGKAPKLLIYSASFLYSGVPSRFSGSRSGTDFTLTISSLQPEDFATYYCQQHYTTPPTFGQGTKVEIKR
B20: Trastuzumab HCDR3 variant ARYPSVVYAFGI (Fab, V domains shown)
VH: EVQLVESGGGLVQPGGSLRLSCAASGFNIKDTYIHWVRQAPGKGLEWVARIYPTNGYTRYADSVKGRFTISADTSKNTAYLQMNSLRAEDTAVYYCARYPSVVYAFGIWGQGTLVTVSS
VL: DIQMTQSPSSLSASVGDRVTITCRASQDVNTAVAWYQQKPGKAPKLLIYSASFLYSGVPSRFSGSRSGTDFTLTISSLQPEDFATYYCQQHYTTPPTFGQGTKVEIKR
B21: Trastuzumab HCDR3 variant VRYGGDYYYFDY (Fab, V domains shown)
VH: EVQLVESGGGLVQPGGSLRLSCAASGFNIKDTYIHWVRQAPGKGLEWVARIYPTNGYTRYADSVKGRFTISADTSKNTAYLQMNSLRAEDTAVYYCVRYGGDYYYFDYWGQGTLVTVSS
VL: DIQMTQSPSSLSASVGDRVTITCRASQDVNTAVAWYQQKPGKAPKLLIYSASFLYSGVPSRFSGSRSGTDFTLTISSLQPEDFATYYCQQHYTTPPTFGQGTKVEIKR
B22: Trastuzumab HCDR3 variant ARYGYYLYAMDY (Fab, V domains shown)
VH: EVQLVESGGGLVQPGGSLRLSCAASGFNIKDTYIHWVRQAPGKGLEWVARIYPTNGYTRYADSVKGRFTISADTSKNTAYLQMNSLRAEDTAVYYCARYGYYLYAMDYWGQGTLVTVSS
VL: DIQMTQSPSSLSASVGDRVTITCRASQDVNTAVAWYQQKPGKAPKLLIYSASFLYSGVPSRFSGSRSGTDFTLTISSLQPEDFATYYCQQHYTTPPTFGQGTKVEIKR
B23: Trastuzumab HCDR3 variant TRYGSYYYYFDY (Fab, V domains shown)
VH: EVQLVESGGGLVQPGGSLRLSCAASGFNIKDTYIHWVRQAPGKGLEWVARIYPTNGYTRYADSVKGRFTISADTSKNTAYLQMNSLRAEDTAVYYCTRYGSYYYYFDYWGQGTLVTVSS
VL: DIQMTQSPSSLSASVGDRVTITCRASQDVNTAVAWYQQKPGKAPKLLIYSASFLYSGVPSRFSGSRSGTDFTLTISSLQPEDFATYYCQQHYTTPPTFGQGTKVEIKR
B24: Trastuzumab HCDR3 variant TRFLIGSYYYDY (Fab, V domains shown)
VH: EVQLVESGGGLVQPGGSLRLSCAASGFNIKDTYIHWVRQAPGKGLEWVARIYPTNGYTRYADSVKGRFTISADTSKNTAYLQMNSLRAEDTAVYYCTRFLIGSYYYDYWGQGTLVTVSS
VL: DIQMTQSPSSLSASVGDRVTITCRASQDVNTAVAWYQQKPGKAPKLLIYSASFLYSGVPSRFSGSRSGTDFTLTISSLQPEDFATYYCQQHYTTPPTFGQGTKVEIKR
B25: Trastuzumab HCDR3 variant ATYSPGAYYYGP (Fab, V domains shown)
VH: EVQLVESGGGLVQPGGSLRLSCAASGFNIKDTYIHWVRQAPGKGLEWVARIYPTNGYTRYADSVKGRFTISADTSKNTAYLQMNSLRAEDTAVYYCATYSPGAYYYGPWGQGTLVTVSS
VL: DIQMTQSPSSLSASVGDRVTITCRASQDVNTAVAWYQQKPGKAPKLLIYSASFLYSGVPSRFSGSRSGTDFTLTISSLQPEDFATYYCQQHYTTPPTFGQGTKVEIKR
B26: Trastuzumab HCDR3 variant VRWRSDFYYFDY (Fab, V domains shown)
VH: EVQLVESGGGLVQPGGSLRLSCAASGFNIKDTYIHWVRQAPGKGLEWVARIYPTNGYTRYADSVKGRFTISADTSKNTAYLQMNSLRAEDTAVYYCVRWRSDFYYFDYWGQGTLVTVSS
VL: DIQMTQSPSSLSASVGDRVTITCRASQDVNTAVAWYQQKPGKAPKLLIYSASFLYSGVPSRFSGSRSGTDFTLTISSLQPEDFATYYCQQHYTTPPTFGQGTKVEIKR
B27: Trastuzumab HCDR3 variant TRNSFGFYAMDY (Fab, V domains shown)
VH: EVQLVESGGGLVQPGGSLRLSCAASGFNIKDTYIHWVRQAPGKGLEWVARIYPTNGYTRYADSVKGRFTISADTSKNTAYLQMNSLRAEDTAVYYCTRNSFGFYAMDYWGQGTLVTVSS
VL: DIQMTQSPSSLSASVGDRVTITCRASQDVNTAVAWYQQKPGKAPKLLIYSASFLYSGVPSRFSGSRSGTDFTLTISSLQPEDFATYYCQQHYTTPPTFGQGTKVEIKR
B28: Trastuzumab HCDR3 variant TRYGAPYFYFDY (Fab, V domains shown)
VH: EVQLVESGGGLVQPGGSLRLSCAASGFNIKDTYIHWVRQAPGKGLEWVARIYPTNGYTRYADSVKGRFTISADTSKNTAYLQMNSLRAEDTAVYYCTRYGAPYFYFDYWGQGTLVTVSS
VL: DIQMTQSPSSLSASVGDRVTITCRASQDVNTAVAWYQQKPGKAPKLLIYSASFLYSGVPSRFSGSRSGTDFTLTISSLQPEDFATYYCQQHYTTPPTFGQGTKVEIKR
B29: Trastuzumab HCDR3 variant ARYWMGVYEFDY (Fab, V domains shown)
VH: EVQLVESGGGLVQPGGSLRLSCAASGFNIKDTYIHWVRQAPGKGLEWVARIYPTNGYTRYADSVKGRFTISADTSKNTAYLQMNSLRAEDTAVYYCARYWMGVYEFDYWGQGTLVTVSS
VL: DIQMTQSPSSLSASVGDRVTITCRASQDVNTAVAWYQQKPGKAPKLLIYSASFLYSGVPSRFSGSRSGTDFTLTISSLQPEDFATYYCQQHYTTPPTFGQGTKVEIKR
B30: Trastuzumab HCDR3 variant ATYGRDYYHFAS (Fab, V domains shown)
VH: EVQLVESGGGLVQPGGSLRLSCAASGFNIKDTYIHWVRQAPGKGLEWVARIYPTNGYTRYADSVKGRFTISADTSKNTAYLQMNSLRAEDTAVYYCATYGRDYYHFASWGQGTLVTVSS
VL: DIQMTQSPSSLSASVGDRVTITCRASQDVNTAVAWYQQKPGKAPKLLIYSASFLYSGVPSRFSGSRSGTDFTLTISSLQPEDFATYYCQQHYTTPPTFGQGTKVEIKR
B31: Trastuzumab HCDR3 variant ARYYYGFYYFDY (Fab, V domains shown)
VH: EVQLVESGGGLVQPGGSLRLSCAASGFNIKDTYIHWVRQAPGKGLEWVARIYPTNGYTRYADSVKGRFTISADTSKNTAYLQMNSLRAEDTAVYYCARYYYGFYYFDYWGQGTLVTVSS
VL: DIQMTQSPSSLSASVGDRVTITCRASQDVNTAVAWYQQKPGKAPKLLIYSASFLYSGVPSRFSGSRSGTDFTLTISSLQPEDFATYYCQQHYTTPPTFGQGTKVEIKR
B32: Trastuzumab HCDR3 variant AVSADIMYGVSV (Fab, V domains shown)
VH: EVQLVESGGGLVQPGGSLRLSCAASGFNIKDTYIHWVRQAPGKGLEWVARIYPTNGYTRYADSVKGRFTISADTSKNTAYLQMNSLRAEDTAVYYCAVSADIMYGVSVWGQGTLVTVSS
VL: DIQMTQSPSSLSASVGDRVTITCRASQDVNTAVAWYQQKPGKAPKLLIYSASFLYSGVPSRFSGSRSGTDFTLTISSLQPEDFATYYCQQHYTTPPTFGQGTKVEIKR

These binders were tested against T1, HER2 (human epidermal growth factor receptor 2) (human, UniProt P04626 23-629) (assay: SPR).
T1 construct: also called Antigen: HER2
B1 was tested, and the Kd was 23.3 nM and the “log(KD (M))” value was -7.63.
For B2, the Kd was 11.2 nM and the “log(KD (M))” value was -7.95.
B3 was tested, and the Kd was 5.25 nM and the “log(KD (M))” value was -8.28.
For B4, the Kd was 6.35 nM and the “log(KD (M))” value was -8.2.
With B5 the Kd was 2.73 nM and the “log(KD (M))” value was -8.56.
With B6 the Kd was 4.73 nM and the “log(KD (M))” value was -8.33.
For B7, the Kd was 23.5 nM and the “log(KD (M))” value was -7.63.
With B8 the Kd was 10.9 nM and the “log(KD (M))” value was -7.96.
For B9, the Kd was 2.06 nM and the “log(KD (M))” value was -8.69.
In the case of B10, the Kd is reported as 17.9 nM and the “log(KD (M))” value is reported as -7.75.
In the case of B11, the Kd is reported as 3.59 nM and the “log(KD (M))” value is reported as -8.45.
In the case of B12, the Kd is reported as 6.9 nM and the “log(KD (M))” value is reported as -8.16.
In the case of B13, the Kd is reported as 15.5 nM and the “log(KD (M))” value is reported as -7.81.
In the case of B14, the Kd is reported as 3.02 nM and the “log(KD (M))” value is reported as -8.52.
B15 was tested, and the Kd was 22.5 nM and 22.4 nM and the “log(KD (M))” value was -7.65.
With B16 the Kd was 12.6 nM and the “log(KD (M))” value was -7.9.
B17 was tested, and the Kd was 10.2 nM and the “log(KD (M))” value was -7.99.
In the case of B18, the Kd is reported as 6.15 nM and the “log(KD (M))” value is reported as -8.21.
With B19 the Kd was 5.4 nM and the “log(KD (M))” value was -8.27.
In the case of B20, the Kd is reported as 22.3 nM and the “log(KD (M))” value is reported as -7.65.
In the case of B21, the Kd is reported as 21.9 nM and the “log(KD (M))” value is reported as -7.66.
B22 was tested, and the Kd was 10.1 nM and the “log(KD (M))” value was -7.99.
With B23 the Kd was 3.18 nM and the “log(KD (M))” value was -8.5.
With B24 the Kd was 11.6 nM and the “log(KD (M))” value was -7.93.
B25 was tested, and the Kd was 17.3 nM and 17.2 nM and the “log(KD (M))” value was -7.76.
With B26 the Kd was 4.95 nM and the “log(KD (M))” value was -8.31.
B27 was tested, and the Kd was 19 nM and the “log(KD (M))” value was -7.72.
In the case of B28, the Kd is reported as 18 nM and the “log(KD (M))” value is reported as -7.75.
B29 was tested, and the Kd was 21.7 nM and the “log(KD (M))” value was -7.66.
In the case of B30, the Kd is reported as 7.55 nM and the “log(KD (M))” value is reported as -8.12.
B31 was tested, and the Kd was 1.21 nM and the “log(KD (M))” value was -8.92.
With B32 the Kd was 22.9 nM and the “log(KD (M))” value was -7.64.
